US5466669A, “Immunostimulatory agent” (Morinaga Milk Industry Co., Ltd., priority 1993, dated 1995)

Experiments:
Format in all cases: cell-based
[1] = tested on: human polymorphonuclear neutrophils; assay: Test 3: leukotriene release from human polymorphonuclear neutrophils induced by calcium ionophore A23187; details: for Leukotriene released (ng) B4 / Leukotriene released (ng) C4 / Leukotriene released (ng) 20-COOH / Leukotriene released (ng) 20-OH: A23187 5 μM; for Leukotriene released (ng) B4: saline control 12; for Leukotriene released (ng) C4: saline control 18; for Leukotriene released (ng) 20-COOH: saline control 31; for Leukotriene released (ng) 20-OH: saline control 55; for Leukotriene released (ng) (Total B4): sum of B4, 20-OH and 20-COOH, saline control 98; for activity to promote the release of leukotriene B4 from polymorphonuclear neutrophils (in words): 1 to 100 ppm
Method: This test was performed to study the activity of the peptide of the present invention to promote the release of leukotriene B4 from human polymorphonuclear neutrophils induced by the calcium ionophore A23187.
Human polymorphonuclear neutrophils were prepared by fractionation of leukocytes from heparinized blood of healthy donors on a Ficoll-metrizoategradient followed by dextran sedimentation. The cells were centrifuged at 300×g, and washed three times with phosphate-buffered saline, after which less than 2% of the platelets remained. Erythrocytes were removed by exposing the cells to hypotonic conditions. The purity of the polymorphonuclear neutrophil fraction used was greater than 97% as confirmed by light microscopy.
For analysis of leukotriene release, human neutrophils suspended in phosphate-buffered saline at approximately 1×10^7 cells per ml were used as the target cells. The cells were incubated for 30 min in the presence of test substance [(purified peptide obtained by the method as in Example 1, or human lactoferrin (Sigma Chemical Co.), or bovine lactoferrin (Morinaga Milk Industry Co.)]. Leukotriene release from the neutrophils was then induced by the addition of calcium ionophore A23187 (Sigma chemical Co.) at a final concentration of 5 μM. After 30 min, the supernatants of the stimulated cells were deproteinized by addition of 2 ml of methanol-acetonitrile (1:1) overlaid with nitrogen and frozen for 12 h at -70° C. After centrifugation at 1000×g for 15 min the supernatant was evaporated to dryness in a freeze dryer, suspended in 0.5 ml of methanol-water (30:70), overlaid with nitrogen, and stored overnight at -70° C. The samples were centrifuged at 1000×g and the supernatant was assayed for the presence of leukotrienes by high pressure liquid chromatography using a reverse-phase column of Nucleosil (C18; 5 μm particles) at a column temperature of 40° C. The solvent system was a mixture of phosphate buffer (17 mM K2 HPO4 containing 0.05% EDTA), acetonitrile, and methanol (50:30:20) adjusted to pH 5.0 with phosphoric acid. The absorbance at 280 nm of the column effluent was monitored and recorded. The concentration of each eluted leukotriene was determined from the peak area by means of a computing integrator. The leukotrienes were identified from their retention times with reference to known standards. The minimum detectable quantity was 1 ng in each instance.

[2] = tested on: rat peritoneal mast cells; assay: Test 1: histamine release from rat peritoneal mast cells induced by calcium ionophore A23187; details: for Histamine release (Relative %): A23187 5 μM, control (saline) = 100; for activity to promote the release of histamine from mast cells induced by A23187 (in words): 1 to 100 ppm
Method: This test was performed to study the activity of the peptide of the present invention to promote the release of histamine from rat peritoneal mast cells induced by the calcium ionophore A23187.
Peritoneal cells were collected from Wistar rats after intraperitoneal injection of phosphate-buffered saline (consisting of 120 mM NaCl, 10 mM Na2 PO4, 3 mM KH2 PO4, pH 7.4). Their abdoments were massaged and the buffer containing the cells was recovered. The cells were centrifuged at 300×g for 15 min and washed twice with phosphate-buffered saline. The cells from several rats were pooled for use in the experiments.
Rat peritoneal cells containing about 1×10^5 mast cells per ml were used as the target cells. A 500 μl volume of the cell suspension was incubated with 100 μl volume of the test substance [purified peptide obtained by the method as in Example 1, or human lactoferrin (Sigma Chemical Co.), or bovine lactoferrin (Morinaga Milk industry Co.)] at 37° C. for 3O min. Thereafter, histamine release from the mast cells was induced by the addition of calcium ionophore A23187 (Sigma Chemical Co.) at a final concentration of 5 μM. After 10 min of incubation the cells were centrifuged at 300×g for 15 min and the supernatant was removed and deproteinized by the addition of 2 ml of HClO4 (2%). The deproteinized sample was then centrifuged at 2000×g for 20 min and the histamine content in the supernatant was determined by the fluorophotometric analyser technique (AutoAnalyzer: Technikon). Cells in the presence of phosphate-buffered saline served as control.

[3] = tested on: rat peritoneal mast cells; assay: Test 2: histamine release from rat peritoneal mast cells induced by α-toxin-producing Staphylococcus aureus cells; details: for Histamine release (Relative %): S. aureus 121 about 1.0×10^8 cells per ml, control (saline) = 100; for activity to promote the release of histamine from mast cells induced by α-toxin-producing Staphylococcus aureus cells (in words): 1 to 100 ppm
Method: This test was performed to study the activity of the peptide of the present invention to promote the release of histamine from rat peritoneal mast cells induced by α-toxin-producing Staphylococcus aureus cells.
Staphylococcus aureus 121, an α-toxin-producing strain, was cultured overnight in Brain Heart Infusion broth at 37° C. The bacterial cells were collected by centrifugation at 4000×g for 20 min, washed with phosphate-buffered saline, and suspended in the same buffer for use in the experiment. Rat peritoneal cells were prepared as in Test 1.
The same method as in Test 1 was used, except histamine release from the mast cells was induced by the addition of α-toxin-producing Staphylococcus aureus cells at a final concentration of about 1.0×10^8 cells per ml.

B1: lactoferrin, bovine: bovine lactoferrin (Morinaga Milk industry Co.) (protein, UniProt P24627 20-708, looked up)
Lactotransferrin: APRKNVRWCTISQPEWFKCRRWQWRMKKLGAPSITCVRRAFALECIRAIAEKKADAVTLDGGMVFEAGRDPYKLRPVAAEIYGTKESPQTHYYAVAVVKKGSNFQLDQLQGRKSCHTGLGRSAGWIIPMGILRPYLSWTESLEPLQGAVAKFFSASCVPCIDRQAYPNLCQLCKGEGENQCACSSREPYFGYSGAFKCLQDGAGDVAFVKETTVFENLPEKADRDQYELLCLNNSRAPVDAFKECHLAQVPSHAVVARSVDGKEDLIWKLLSKAQEKFGKNKSRSFQLFGSPPGQRDLLFKDSALGFLRIPSKVDSALYLGSRYLTTLKNLRETAEEVKARYTRVVWCAVGPEEQKKCQQWSQQSGQNVTCATASTTDDCIVLVLKGEADALNLDGGYIYTAGKCGLVPVLAENRKSSKHSSLDCVLRPTEGYLAVAVVKKANEGLTWNSLKDKKSCHTAVDRTAGWNIPMGLIVNQTGSCAFDEFFSQSCAPGADPKSRLCALCAGDDQGLDKCVPNSKEKYYGYTGAFRCLAEDVGDVAFVKNDTVWENTNGESTADWAKNLNREDFRLLCLDGTRKPVTEAQSCHLAVAPNHAVVSRSDRAAHVKQVLLHQQALFGKNGKNCPDKFCLFKSETKNLLFNDNTECLAKLGGRPTYEEYLGTEYVTAIANLKKCSTSPLLEACAFLTR
Question: What does the source list for B1?
Answer: Leukotriene released (ng) B4 ([1]; 1 ppm test substance): 9 ng; Leukotriene released (ng) C4 ([1]; 1 ppm test substance): 17 ng; Leukotriene released (ng) 20-COOH ([1]; 1 ppm test substance): 41 ng; Leukotriene released (ng) 20-OH ([1]; 1 ppm test substance): 50 ng; Leukotriene released (ng) (Total B4) ([1]; 1 ppm test substance): 100 ng; activity to promote the release of leukotriene B4 from polymorphonuclear neutrophils (in words) [1]: little, if any, such activity; Leukotriene released (ng) B4 ([1]; 10 ppm test substance): 11 ng; Leukotriene released (ng) C4 ([1]; 10 ppm test substance): 15 ng; Leukotriene released (ng) 20-COOH ([1]; 10 ppm test substance): 36 ng; Leukotriene released (ng) 20-OH ([1]; 10 ppm test substance): 60 ng; Leukotriene released (ng) (Total B4) ([1]; 10 ppm test substance): 107 ng; Leukotriene released (ng) B4 ([1]; 100 ppm test substance): 11 ng; Leukotriene released (ng) C4 ([1]; 100 ppm test substance): 15 ng; Leukotriene released (ng) 20-COOH ([1]; 100 ppm test substance): 35 ng; Leukotriene released (ng) 20-OH ([1]; 100 ppm test substance): 59 ng; Leukotriene released (ng) (Total B4) ([1]; 100 ppm test substance): 105 ng; Histamine release (Relative %) ([2]; 1 ppm test substance): 105 ± 25 Relative %; activity to promote the release of histamine from mast cells induced by A23187 (in words) [2]: little, if any, such activity; Histamine release (Relative %) ([2]; 10 ppm test substance): 110 ± 20 Relative %; Histamine release (Relative %) ([2]; 100 ppm test substance): 125 ± 25 Relative %; Histamine release (Relative %) ([3]; 1 ppm test substance): 150 ± 10 Relative %; activity to promote the release of histamine from mast cells induced by α-toxin-producing Staphylococcus aureus cells (in words) [3]: little, if any, such activity; Histamine release (Relative %) ([3]; 10 ppm test substance): 160 ± 10 Relative %; Histamine release (Relative %) ([3]; 100 ppm test substance): 110 ± 15 Relative %

B2: lactoferrin, human: human lactoferrin (Sigma Chemical Co.) (protein, UniProt P02788 20-710, looked up)
Lactotransferrin: GRRRSVQWCAVSQPEATKCFQWQRNMRKVRGPPVSCIKRDSPIQCIQAIAENRADAVTLDGGFIYEAGLAPYKLRPVAAEVYGTERQPRTHYYAVAVVKKGGSFQLNELQGLKSCHTGLRRTAGWNVPIGTLRPFLNWTGPPEPIEAAVARFFSASCVPGADKGQFPNLCRLCAGTGENKCAFSSQEPYFSYSGAFKCLRDGAGDVAFIRESTVFEDLSDEAERDEYELLCPDNTRKPVDKFKDCHLARVPSHAVVARSVNGKEDAIWNLLRQAQEKFGKDKSPKFQLFGSPSGQKDLLFKDSAIGFSRVPPRIDSGLYLGSGYFTAIQNLRKSEEEVAARRARVVWCAVGEQELRKCNQWSGLSEGSVTCSSASTTEDCIALVLKGEADAMSLDGGYVYTAGKCGLVPVLAENYKSQQSSDPDPNCVDRPVEGYLAVAVVRRSDTSLTWNSVKGKKSCHTAVDRTAGWNIPMGLLFNQTGSCKFDEYFSQSCAPGSDPRSNLCALCIGDEQGENKCVPNSNERYYGYTGAFRCLAENAGDVAFVKDVTVLQNTDGNNNEAWAKDLKLADFALLCLDGKRKPVTEARSCHLAMAPNHAVVSRMDKVERLKQVLLHQQAKFGRNGSDCPDKFCLFQSETKNLLFNDNTECLARLHGKTTYEKYLGPQYVAGITNLKKCSTSPLLEACEFLRK
Question: Which results are given for B2?
Answer: Leukotriene released (ng) B4 ([1]; 1 ppm test substance): 11 ng; Leukotriene released (ng) C4 ([1]; 1 ppm test substance): 12 ng; Leukotriene released (ng) 20-COOH ([1]; 1 ppm test substance): 41 ng; Leukotriene released (ng) 20-OH ([1]; 1 ppm test substance): 80 ng; Leukotriene released (ng) (Total B4) ([1]; 1 ppm test substance): 131 ng; activity to promote the release of leukotriene B4 from polymorphonuclear neutrophils (in words) [1]: little, if any, such activity; Leukotriene released (ng) B4 ([1]; 10 ppm test substance): 10 ng; Leukotriene released (ng) C4 ([1]; 10 ppm test substance): 13 ng; Leukotriene released (ng) 20-COOH ([1]; 10 ppm test substance): 26 ng; Leukotriene released (ng) 20-OH ([1]; 10 ppm test substance): 50 ng; Leukotriene released (ng) (Total B4) ([1]; 10 ppm test substance): 86 ng; Leukotriene released (ng) B4 ([1]; 100 ppm test substance): 10 ng; Leukotriene released (ng) C4 ([1]; 100 ppm test substance): 17 ng; Leukotriene released (ng) 20-COOH ([1]; 100 ppm test substance): 26 ng; Leukotriene released (ng) 20-OH ([1]; 100 ppm test substance): 42 ng; Leukotriene released (ng) (Total B4) ([1]; 100 ppm test substance): 76 ng; Histamine release (Relative %) ([2]; 1 ppm test substance): 115 ± 20 Relative %; activity to promote the release of histamine from mast cells induced by A23187 (in words) [2]: little, if any, such activity; Histamine release (Relative %) ([2]; 10 ppm test substance): 110 ± 10 Relative %; Histamine release (Relative %) ([2]; 100 ppm test substance): 100 ± 10 Relative %; Histamine release (Relative %) ([3]; 1 ppm test substance): 180 ± 5 Relative %; activity to promote the release of histamine from mast cells induced by α-toxin-producing Staphylococcus aureus cells (in words) [3]: little, if any, such activity; Histamine release (Relative %) ([3]; 10 ppm test substance): 115 ± 15 Relative %; Histamine release (Relative %) ([3]; 100 ppm test substance): 120 ± 20 Relative %
